In the supplement of paper PMC12042874:
± gives the uncertainty stated by the source.

Assay: amyloid nucleation score (Sup35N fusion, yeast selection) (log enrichment); library NNK2; higher = more nucleation; inactive = no reads after selection
In short: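 Sup35N fusions to peptides of 20 random codons were expressed in psi-negative yeast, induced 24 hours with 100 μM copper sulfate, and grown 7 days at 30°C on medium lacking adenine and uracil. Input and output plasmid inserts were sequenced by Illumina. The nucleation score is the DiMSum log enrichment of output over input reads, centred on the mode score of non-aggregating sequences. Sequences with under 100 input reads were excluded.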

Substance	amyloid nucleation score
WHKFGNNRANEGRYIMHLMH	-0.282 ± 0.48
RVVQPKFMLGVQYSAIQFNS	2.47 ± 0.089
HYCSVRMWLTTKEADPRTSL	0.739 ± 0.31
KWNQKKNRSCFKAQRWCKLP	-0.637 ± 1.1
STRKCFLMLILTRFGMCC	0.603 ± 0.38
TCWSFECTIEACLLDHVSTR	5.97 ± 0.081
IICAKDMFNLFIKVRQYGWS	4.698 ± 0.038
EAKFGKLKGYKCTVTGECSC	-0.391 ± 0.36
GNIDGLLQFEYRW	0.552 ± 0.66
CHVVVVLEF	2.71 ± 0.078
MVMTYLWARGCCMKLGVQFG	0.396 ± 0.66
QFLEFHIP	-0.223 ± 0.49
SLYFVWSCLLGILKVMPTFN	-1.18 ± 0.64
RFYRSVNFKLYLVA	inactive
DISVLSLQYMS	-0.105 ± 0.8
LSFKRDELVNLNRFSVQFAQ	-0.694 ± 0.38
SFNRS	0.87 ± 0.31
MFNVLIGVGRAGVNNPGHSL	0.343 ± 0.64
LRSDESRYPAFHRESSVRSR	0.377 ± 0.3
SLCEFMREGCLLTYWFNKCE	-0.838 ± 0.64
LVCSKSAGEWAYSRFGVLDL	-0.444 ± 0.44
CSVCYFPEGNLFNGE	inactive
RRSTWSISLS	-0.916 ± 0.45
HFCYYMCFEWLDTIVAYYLG	-0.337 ± 1.1
GYYAPIPLKCVDSEASLRYR	0.308 ± 0.36

Substance	amyloid nucleation score
YSSNGPGEKWRYR	2.04 ± 0.09
TCLTGKAVSVDHS	inactive
VSSHNLMPNRNWMFETQLSW	-0.297 ± 1.1
TVYGHRVGGRSFVL	0.295 ± 0.28
TSDITAVFNSFLKFR	-0.744 ± 0.74
TVYYNQLSD	-0.982 ± 0.76
CIFWVRCKFYGNLNFGCLYD	7 ± 0.078
KCDLMRWSHFQ	1.24 ± 0.48
AYIVDTKVT	1.11 ± 0.68
GFPLLHTGILVSNLYMLRAR	-0.536 ± 1.1
TLKEGRWEVPCLIWIWRVWS	1.6 ± 0.36
NVHFFCWCFLNLCV	-0.558 ± 1
RLCANDLIIGVEMGEGVFDY	1.1 ± 0.31
FYAIGFLIGGLHFWDWHIWF	-0.189 ± 0.64
GRRVPGWNQSYL	-0.274 ± 0.76
VSQFYSMPLTSSYWSLVSSL	0.147 ± 0.65
THYGLMVCQTPVGRRSASCR	1.32 ± 0.28
AHFQYRGNRAFQVWNYCGKY	2.55 ± 0.12
CYTNYIYVLAAMWTSEIRKV	inactive
TFPNLHFCFTLLLYKGCVCG	-0.101 ± 1.1
IMCRETRLYMGMFVFDQLPQ	6.46 ± 0.079
GRYHIDSRKGKSNKSRGNIY	inactive
ISPISEQHMLSLTSYEP	1.74 ± 0.35
YSLTYLAFSFQKNNTIFLTY	0.358 ± 0.65
KGIAVSVVPYSPVNTGDSAV	0.632 ± 0.48

Substance	amyloid nucleation score
GSLMRFDSWLGGTIASS	0.402 ± 0.66
SFVDMSYRFLVGVRFLVRPS	inactive
LLVDTNYSSQMASERFRTCG	-0.34 ± 0.37
HNEPG	-1.2 ± 0.75
LVMWNRCSIKRVNREMVHSF	0.538 ± 0.3
LTSSRRF	5.724 ± 0.037
IATTATSVGSVR	0.924 ± 0.25
IQPQSSVVERGQMNMVGPTP	1.49 ± 0.12
LNSMF	0.056 ± 0.31
GVQETSYVALCSSLVTRTFV	1.16 ± 0.44
YRMLSIKCGM	-0.707 ± 0.79
NGGLLYDI	inactive
SECFRLSLRKGCNTNQVRNT	-0.989 ± 0.63
LCDWCVLS	inactive
IFSTPKTLDPVFYCL	inactive
PMRKADRYSSSSET	-0.479 ± 1
KLQTLLQWFGLY	-0.392 ± 0.41
LSCSILRPVWLYISLIVIID	-1.28 ± 0.48
CRYRLYYRCEVLEYLSDFTW	-0.492 ± 0.56
DRSSS	0.447 ± 0.31
KDAFT	-0.895 ± 0.49
FMRFARMCS	0.256 ± 0.16
LEVRSAWGHLPFMSPEGL	-1.17 ± 0.44
SWVFVWLSH	-0.256 ± 1.1
WCCKVTGHFPDTEQYYFPPP	inactive

Substance	amyloid nucleation score
TCDCIIARFDALTSISRLAL	1.02 ± 0.41
YKVLSISLIVDTFARLYYAL	-0.921 ± 0.54
SDGQGHYVIQRTLWVTWSFR	-0.707 ± 0.76
CMTTYTNLIHIPIQVSTPKR	7.51 ± 0.043
GQYLLSTIIVFGCSMAGFAA	2.52 ± 0.12
FEIWWLVGVVFWMVSGVNTV	-0.074 ± 0.22
TIRFS	-1.58 ± 0.37
NQVFSIALAQNRSRHFFLGG	inactive
ALILAVLPSKDPIRVCWYSG	0.04 ± 0.33
ADSWWSLYNIFEFSSINLNV	inactive
SSPKSWNILS	0.106 ± 0.48
NNRYELCSSQH	inactive
YAPRCNPNRNLLNMT	4.47 ± 0.058
FVLHIMRLSCYCE	-0.29 ± 0.45
DINKFVAVWCHYLSGKGLLP	-0.359 ± 0.26
LYNVVSNTVKYCIFPC	7.135 ± 0.043
SGVWSSKSLYGKRGNSWIVV	0.053 ± 0.23
HVFMSTIKICRDQLNHQLRE	7.729 ± 0.037
SMQLDSFCVICGWFALVGLV	6.67 ± 0.052
VVTKQMSRFS	0.701 ± 0.51
YHNCNQHSWYRMRCFG	-0.417 ± 1.1
VFMFMTQVSRKSYALPRTAA	3.02 ± 0.12
AVPMMSWSFIVSYVGRNNSM	1.7 ± 0.19
DPTGIGWIKEQSLVCCGGVS	2.84 ± 0.081
CANFRSGYGA	-0.241 ± 0.35

Substance	amyloid nucleation score
SSSFFYTHVNHHLVLYDGKA	-0.712 ± 1.1
VDNIVHMWDRNWSPGRYMDR	-0.679 ± 0.44
ILRLTAVCHGHFAVRPDWKR	0.248 ± 0.35
SVALSQVLEKVWESVPKELN	0.62 ± 0.62
THWSCSSKLFGEFGWNFVWK	2.89 ± 0.067
AEYKRGKEGSPLAIWWQLDP	2.34 ± 0.13
ISFDLCIKRWQK	5.946 ± 0.054
MGQTVSRPWQAGSLYGANPC	0.926 ± 0.45
FSRICKAMYQKSGYKINGIN	-0.283 ± 1
LNSDVVFIVPRYHNWFRSLR	inactive
RYYLNL	3.83 ± 0.091
LFKDMYSDLKHILNCGFQTT	-0.711 ± 0.45
SLETFNVTPCRDVT	-0.633 ± 1.1
CHSGVFRVKSCTEYRMGLYS	inactive
LLRMLSYR	0.138 ± 1.1
VIDVKFVGYILQVYVGVSFG	0.026 ± 1.1
ISQRSNASCVN	0.966 ± 0.48
HLCPTHLNNETLRTNFWAN	1.96 ± 0.19
GLSELMKGLLTN	0.08 ± 0.79
THDPNLRCYFVIGTELHSRT	0.126 ± 0.8
CTSCERSLAKRLQGWHIF	-1.09 ± 0.63
YRSSLRHFSVYSYNSFSELL	0.626 ± 0.65
EVHGCYRAWDCMMVACVNAL	0.963 ± 0.53
IVSAKDILRLIYSVCGAGLG	-0.264 ± 0.48
DCLLSFVRVRSSPSVRY	4.47 ± 0.056

Substance	amyloid nucleation score
RLSDLTQVLLDSLTRCGWWG	0.841 ± 0.43
AFSMCSDRWIWLSCLNVEFV	9.677 ± 0.048
CNFKINRAHNELPLDDLRNF	inactive
IFQRWHIS	-2.67 ± 1.1
FLVHCNILALNTCHLVYL	5.07 ± 0.089
FQNITVYSFRATGVTGQRSC	-0.447 ± 0.5
PWFMFPCRHRYRQYLWCFCA	2.52 ± 0.068
VVTRNRISRAGGLRS	0.616 ± 0.39
LDDWDGKTSRIHSGFYSRLR	0.224 ± 0.52
CKLMMGVFVLTVNTCGDVSS	5.33 ± 0.054
LVVVPTTGRVADRQWVMRNG	0.86 ± 0.2
WHDIQALTSMDVGRYLGDAI	-0.696 ± 0.26
HHVGGMTV	0.691 ± 0.8
SQCARKYVVASVSMLTDVTH	1.13 ± 0.31
VPKAWTVWAQVPINWSARQA	0.737 ± 0.62
VNRPATPFEGSQCLIIYSRV	-0.613 ± 0.45
CASAFCLTRE	4.49 ± 0.057
DCFPLLLNRFRPEHYVRWHR	0.887 ± 0.57
RWATAKRI	0.194 ± 0.49
YKRCYIKIEWFQMCFNVVTR	inactive
SFAHEDWHTLFLL	-1.32 ± 0.75
QYVSLYAVKRIVEIVQDKCA	0.012 ± 0.39
SASVHYHYDMK	0.268 ± 0.62
PRNRQRSNSTDCGHLITYWD	0.205 ± 0.62
SFFVIGW	0.102 ± 0.17

Substance	amyloid nucleation score
NAVYACLVGEVLWSSISTLS	0.058 ± 0.54
WFTYQVAYVWYGRNFDTSPA	7.961 ± 0.067
GIMSNLGQSPRVRSHSRRQQ	0.747 ± 0.51
MIHQIELNDIGWVLTTFCNE	-0.536 ± 1
GCRHYYWMMCNLVTFMKRES	7.237 ± 0.028
CWDCKLPHRPGVFMRNNHFK	-0.015 ± 0.45
IARVDLKFMESIRSHMV	1.71 ± 0.56
RTYLGLVLGF	inactive
MASGRWYSNSTYGDCMGGIA	-0.321 ± 1
WWLMWS	0.691 ± 0.53
PIITFNTI	-0.637 ± 1.1
MLSDSLLDCRVLLMVFGRET	3.81 ± 0.051
VDFCVDVLFC	-1.06 ± 1.1
ILYYLGWVASALEGHYLDES	-0.853 ± 0.55
YFIAASYCDLTYLKTIDWTG	2.76 ± 0.067
EGEITFGTFPYSEFVFECST	inactive
IITGLQFLD	-0.691 ± 0.79
YGQAMWASIFMIYRLPKTLR	-1.13 ± 0.28
FLGEVCQWDRMIVARVKATR	-0.063 ± 0.29
RDIMR	0.57 ± 0.5
MGCLTVVRNLEFNRVCGRGD	-0.669 ± 0.49
